Data from publication PMC5114558, “Reader domain specificity and lysine demethylase-4 family function” (Nature Communications, 2016).

Assays:
Test in all cases: fluorescence polarisation; fluorescein-labelled histone peptide 3 nM, KDM4 DTD titrated 0.1-100 μM; 30 mM HEPES, 150 mM NaCl pH 7.4, 0.01% Triton X-100
[1] = biological target: H3K23me1 peptide (monomethylated H3K23), fluorescein-labelled
[2] = biological target: H3T22phK23me3 peptide, fluorescein-labelled
[3] = biological target: H3K23me3R26A peptide, fluorescein-labelled
[4] = biological target: H3 (17-32) K23me3 peptide, fluorescein-labelled (UniProt P68431)
[5] = biological target: H3K23me2 peptide (dimethylated H3K23), fluorescein-labelled
[6] = biological target: H3K23me3R26me2a peptide, fluorescein-labelled

| Kd [1] | Kd [2] | Kd [3] | Kd [4] | Kd [5] | Kd [6] | Substance |
| --- | --- | --- | --- | --- | --- | --- |
| 98.5 µM | 83.7 µM | 32.3 µM | 2.2 µM | 9.06 µM | 8.7 µM | KDM4A double tudor domain (KDM4A-DTD), HaloTag-tagged, wild type (from UniProt O75164 895-1011) (domain or fragment) |
| – | – | – | 10.3 µM | – | – | KDM4B double tudor domain (KDM4B-DTD), HaloTag-tagged, wild type (from UniProt O94953 917-1031) (domain or fragment) |
